Data from patent publication US9527896B2, “Stabilized p53 peptides and uses thereof” (DANA-FARBER CANCER INSTITUTE, INC., priority 2007, dated 2016).
Bridge positions count the residues as written; N and C are the ends. Square brackets hold non-standard residues; d marks the D form. Peptide text beside a SMILES is read from it. R8 = C=CCCCCCC[C@@](C)(N)C(=O)O; S5 = C=CCCC[C@](C)(N)C(=O)O; βAla = NCCC(=O)O

Assays:
circular dichroism = conditions: water; pH 7.0; 20 °C; 10-50 uM
HDM2 = target: T1, HDM2 (Homo sapiens, UniProt Q00987); test: Kd (nM)
T1 construct: Co-Immunoprecipitation of FITC-SAH-p53 Peptides and Endogenous HDM2; endogenous in cells; host or cells: SJSA-1 osteosarcoma cells
T1 sequence (Q00987 whole entry, looked up): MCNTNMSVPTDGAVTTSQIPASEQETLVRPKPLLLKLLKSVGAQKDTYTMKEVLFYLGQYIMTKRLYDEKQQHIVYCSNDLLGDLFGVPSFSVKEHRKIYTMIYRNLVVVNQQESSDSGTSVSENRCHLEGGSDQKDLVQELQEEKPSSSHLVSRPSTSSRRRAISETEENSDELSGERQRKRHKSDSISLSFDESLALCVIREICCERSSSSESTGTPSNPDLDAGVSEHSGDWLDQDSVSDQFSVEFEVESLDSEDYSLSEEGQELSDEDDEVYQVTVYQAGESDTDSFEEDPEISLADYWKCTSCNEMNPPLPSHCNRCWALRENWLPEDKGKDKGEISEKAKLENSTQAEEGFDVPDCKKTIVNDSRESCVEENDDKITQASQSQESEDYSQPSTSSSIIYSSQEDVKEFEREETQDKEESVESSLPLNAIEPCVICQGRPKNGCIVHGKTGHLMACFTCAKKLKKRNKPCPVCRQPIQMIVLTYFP
Source text: The patent's description of the figure: FIGS. 1A-1F Synthesis, Sequence, and Biochemical Analysis of SAH-p53 Peptides. FIG. 1A Non-natural amino acids were synthesized as described and cross-linked by ruthenium-catalyzed ring-closing olefin metathesis. […] Note: UAH-p53-8 is the “unstapled” form of SAH-p53-8.

Compound | helicity (circular dichroism) | Kd (HDM2)
CC(=O)NCCC(=O)N[C@@H](CC(C)C)C(=O)N[C@@H](CO)C(=O)N[C@@H](CCC(N)=O)C(=O)N[C@@H](CCC(=O)O)C(=O)N[C@H](C(=O)N[C@@H](Cc1ccccc1)C(=O)N[C@@H](CO)C(=O)N[C@@H](CC(=O)O)C(=O)N[C@@H](CC(C)C)C(=O)N[C@@H](Cc1c[nH]c2ccccc12)C(=O)N[C@@H](CCCCN)C(=O)N[C@@H](CC(C)C)C(=O)N[C@@H](CC(C)C)C(=O)N1CCC[C@H]1C(=O)N[C@@H](CCC(=O)O)C(=O)N[C@@H](CC(N)=O)C(N)=O)[C@@H](C)O | 11% | 
CC(=O)NCCC(=O)N[C@@H](CC(C)C)C(=O)N[C@@H](CO)C(=O)N[C@@H](CCC(N)=O)C(=O)N[C@@H](CCC(=O)O)C(=O)N[C@]1(C)CCCCCCC=CCCC[C@@](C)(C(=O)N[C@@H](CC(C)C)C(=O)N2CCC[C@H]2C(=O)N[C@@H](CCC(=O)O)C(=O)N[C@@H](CC(N)=O)C(N)=O)NC(=O)[C@H](CCCCN)NC(=O)[C@H](Cc2c[nH]c3ccccc23)NC(=O)[C@H](CC(C)C)NC(=O)[C@H](CC(=O)O)NC(=O)[C@H](CO)NC(=O)[C@H](Cc2ccccc2)NC1=O (Ac-[βAla]LSQE[R8]FSDLWK[S5]LPEN-NH2; staple 6-13) | 10% | 
CC(=O)NCCC(=O)N[C@@H](CC(C)C)C(=O)N[C@@H](CO)C(=O)N[C@@H](CCC(N)=O)C(=O)N[C@]1(C)CCCCCCC=CCCC[C@@](C)(C(=O)N[C@@H](CC(C)C)C(=O)N[C@@H](CC(C)C)C(=O)N2CCC[C@H]2C(=O)N[C@@H](CCC(=O)O)C(=O)N[C@@H](CC(N)=O)C(N)=O)NC(=O)[C@H](Cc2c[nH]c3ccccc23)NC(=O)[C@H](CC(C)C)NC(=O)[C@H](CC(=O)O)NC(=O)[C@H](CO)NC(=O)[C@H](Cc2ccccc2)NC(=O)[C@H]([C@@H](C)O)NC1=O (Ac-[βAla]LSQ[R8]TFSDLW[S5]LLPEN-NH2; staple 5-12) | 12% | 
CC(=O)NCCC(=O)N[C@@H](CC(C)C)C(=O)N[C@@H](CO)C(=O)N[C@@H](CCC(N)=O)C(=O)N[C@@H](CCC(=O)O)C(=O)N[C@H](C(=O)N[C@@H](Cc1ccccc1)C(=O)N[C@@H](CO)C(=O)N[C@@H](CC(=O)O)C(=O)N[C@]1(C)CCCCCCC=CCCC[C@@](C)(C(N)=O)NC(=O)[C@H](CCC(=O)O)NC(=O)[C@@H]2CCCN2C(=O)[C@H](CC(C)C)NC(=O)[C@H](CC(C)C)NC(=O)[C@H](CCCCN)NC(=O)[C@H](Cc2c[nH]c3ccccc23)NC1=O)[C@@H](C)O [SAH-p53-1] (Ac-[βAla]LSQETFSD[R8]WKLLPE[S5]-NH2; staple 10-17) | 25% | 100 ± 8 nM
CC(=O)NCCC(=O)N[C@@H](CC(C)C)C(=O)N[C@@H](CO)C(=O)N[C@@H](CCC(N)=O)C(=O)N[C@@H](CCC(=O)O)C(=O)N[C@H](C(=O)N[C@@H](Cc1ccccc1)C(=O)N[C@]1(C)CCCCCCC=CCCC[C@@](C)(C(=O)N[C@@H](CCC(N)=O)C(=O)N[C@@H](CC(N)=O)C(N)=O)NC(=O)[C@H](CC(C)C)NC(=O)[C@H](CC(C)C)NC(=O)[C@H](CCCCN)NC(=O)[C@H](Cc2c[nH]c3ccccc23)NC(=O)[C@H](CC(C)C)NC(=O)[C@H](CC(N)=O)NC1=O)[C@@H](C)O [SAH-p53-5] (Ac-[βAla]LSQETF[R8]NLWKLL[S5]QN-NH2; staple 8-15) | 20% | 0.8 ± 0.05 nM
C=CCCCCCC[C@@](C)(NC(=O)[C@H](Cc1ccccc1)NC(=O)[C@@H](NC(=O)[C@H](CCC(N)=O)NC(=O)[C@H](CCC(N)=O)NC(=O)[C@H](CO)NC(=O)[C@H](CCC(N)=O)NC(=O)CCNC(C)=O)[C@@H](C)O)C(=O)N[C@@H](CC(N)=O)C(=O)N[C@@H](CC(C)C)C(=O)N[C@@H](Cc1c[nH]c2ccccc12)C(=O)N[C@@H](CCCNC(=N)N)C(=O)N[C@@H](CC(C)C)C(=O)N[C@@H](CC(C)C)C(=O)N[C@@](C)(CCCC=C)C(=O)N[C@@H](CCC(N)=O)C(=O)N[C@@H](CC(N)=O)C(N)=O [UAH-p53-8, Ac-QSQQTF*NLWRKK*QN-NH2] | 36% | 
